Data as given in paper PMC8017934.
Several values for one entry are separate records, joined by “and”; a condition that tells them apart may be missing. Equal entries are not always repeated.

Tests used:
[1] = target: human 40S ribosomal subunit with the ybbR tag on RACK1, biotinylated or Cy5-labelled (human) (UniProt P63244)
[2] = target: human 40S ribosomal subunit with the ybbR tag on uS19, Cy3-labelled (human (endogenous in HEK293T)) (UniProt P62841)

Substance | Kd [1] [nM] | fraction of IRES–40S complexes bound at least once by NSP1 (≥∼5 s) [1] [%] | koff [1] [s⁻¹] | fraction of recruited 40S subunits with which NSP1 coassociated [2]
Bat-Hp-CoV NSP1 with an N-terminal ybbR tag, Cy3-labelled (natural protein) | < 1 | 89 | < 0.002 | 
SARS-CoV-2 NSP1(KH164-165AA) with an N-terminal ybbR tag, Cy3-labelled (from UniProt P0DTD1 1-180) (natural protein) | > 350 | 9 | 0.14 | 
SARS-CoV-2 NSP1 with an N-terminal ybbR tag, fluorescently labelled (from UniProt P0DTD1 1-180) (natural protein) |  |  |  | 57% and 60%
